{"source": "paper PMC10111636", "conditions_in_all_cases": "glycan lost; control: Flag-LARP1-WT", "key": {"[1]": {"assay": "Western blot, TMG with or without sh-circCLNS1A#1"}, "[2]": {"assay": "cycloheximide chase, sh-circCLNS1A#1 vs sh-NC cells"}, "[3]": {"assay": "cycloheximide chase, Western blot"}}}
{"substance": "La-related protein 1 (LARP1): S672A", "values": [{"measurement": "other: dependence of protein level on circCLNS1A", "setting": "[1]", "result": "abolishes"}, {"measurement": "other: dependence of protein stability on circCLNS1A", "setting": "[2]", "result": "abolishes"}, {"measurement": "degradation_or_half_life", "setting": "[3]", "result": "decreases"}]}
